Experimental data: US20210275641A1 (SYNTHEKINE, published 2021)

T1: human high affinity trimeric IL-2 receptor (CD25/CD122/CD132) (human, UniProt P01589 22-272; P14784 27-551; P31785 23-369)
T1 sequence 1: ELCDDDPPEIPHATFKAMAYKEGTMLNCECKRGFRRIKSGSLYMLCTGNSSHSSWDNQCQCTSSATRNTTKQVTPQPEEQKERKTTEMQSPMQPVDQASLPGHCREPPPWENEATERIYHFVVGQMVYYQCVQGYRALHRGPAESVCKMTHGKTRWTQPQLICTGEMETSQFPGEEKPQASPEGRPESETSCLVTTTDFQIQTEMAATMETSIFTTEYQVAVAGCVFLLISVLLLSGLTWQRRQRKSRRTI
T1 sequence 2: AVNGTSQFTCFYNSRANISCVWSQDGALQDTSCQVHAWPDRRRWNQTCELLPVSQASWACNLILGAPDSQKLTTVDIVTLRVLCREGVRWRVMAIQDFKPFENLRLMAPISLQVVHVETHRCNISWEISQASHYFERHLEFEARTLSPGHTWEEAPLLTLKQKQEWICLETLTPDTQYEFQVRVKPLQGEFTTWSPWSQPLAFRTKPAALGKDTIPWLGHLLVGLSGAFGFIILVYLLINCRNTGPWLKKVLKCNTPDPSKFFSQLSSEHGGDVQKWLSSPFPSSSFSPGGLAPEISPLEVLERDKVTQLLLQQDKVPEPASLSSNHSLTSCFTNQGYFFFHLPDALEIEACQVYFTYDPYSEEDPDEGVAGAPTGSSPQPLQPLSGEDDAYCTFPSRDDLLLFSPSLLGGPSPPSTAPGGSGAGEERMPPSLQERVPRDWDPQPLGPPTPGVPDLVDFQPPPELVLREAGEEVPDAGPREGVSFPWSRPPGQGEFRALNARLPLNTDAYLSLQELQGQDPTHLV
T1 sequence 3: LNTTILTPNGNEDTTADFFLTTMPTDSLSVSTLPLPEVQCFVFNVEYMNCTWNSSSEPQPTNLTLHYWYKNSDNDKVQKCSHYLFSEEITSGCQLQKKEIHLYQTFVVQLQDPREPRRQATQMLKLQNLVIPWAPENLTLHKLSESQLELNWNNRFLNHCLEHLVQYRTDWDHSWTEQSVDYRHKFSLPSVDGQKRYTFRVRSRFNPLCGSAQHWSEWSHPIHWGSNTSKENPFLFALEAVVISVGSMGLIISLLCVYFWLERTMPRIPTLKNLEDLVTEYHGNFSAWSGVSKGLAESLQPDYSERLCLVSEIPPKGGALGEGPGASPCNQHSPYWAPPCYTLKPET


Target: T1, human high affinity trimeric IL-2 …
Experiment: cell-based or functional assay

pSTAT5 ratio YT CD25/YT, dilution factor 2, upper table	pSTAT5 ratio YT CD25/YT, dilution factor 4, upper table	pSTAT5 ratio YT CD25/YT, dilution factor 8, upper table	pSTAT5 ratio YT CD25/YT, dilution factor 16, upper table	pSTAT5 ratio YT CD25/YT, dilution factor 32, upper table	pSTAT5 ratio YT CD25/YT, dilution factor 64, upper table	pSTAT5 ratio YT CD25/YT, dilution factor 128, upper table	pSTAT5 ratio YT CD25/YT, dilution factor 2, lower table	pSTAT5 ratio YT CD25/YT, dilution factor 4, lower table	pSTAT5 ratio YT CD25/YT, dilution factor 8, lower table	pSTAT5 ratio YT CD25/YT, dilution factor 16, lower table	pSTAT5 ratio YT CD25/YT, dilution factor 32, lower table	pSTAT5 ratio YT CD25/YT, dilution factor 64, lower table	pSTAT5 ratio YT CD25/YT, dilution factor 128, lower table	Binder
1.2	1.5	2.5	4	7.8	11.4	15.1	–	–	–	–	–	–	–	SEH (ligand) cytokine: APTSSSTKKTQLQLEHLSLDLEMILNGINNYKNPKLTRMLTFKFYMPKKATELKHLQCLEEELKPLEEVLNLAQSKNFHLRPRDLISNINVIVLELKGSETTFMCEYADETATIVEFLNRWITFCHSIISTLT
–	–	–	–	–	–	–	0.8	0.9	1	1.2	1.5	2	3.4	YEH (ligand) cytokine: APTSSSTKKTQLQLEHLYLDLEMILNGINNYKNPKLTRMLTFKFYMPKKATELKHLQCLEEELKPLEEVLNLAQSKNFHLRPRDLISNINVIVLELKGSETTFMCEYADETATIVEFLNRWITFCHSIISTLT
–	–	–	–	–	–	–	0.6	0.8	1.1	1.4	2.3	3.9	5.1	RMH (ligand) cytokine: APTSSSTKKTQLQLEHLRLDLMMILNGINNYKNPKLTRMLTFKFYMPKKATELKHLQCLEEELKPLEEVLNLAQSKNFHLRPRDLISNINVIVLELKGSETTFMCEYADETATIVEFLNRWITFCHSIISTLT
1.2	1.6	2.4	3.6	6.3	10.9	14.8	–	–	–	–	–	–	–	VEH (ligand) cytokine: APTSSSTKKTQLQLEHLVLDLEMILNGINNYKNPKLTRMLTFKFYMPKKATELKHLQCLEEELKPLEEVLNLAQSKNFHLRPRDLISNINVIVLELKGSETTFMCEYADETATIVEFLNRWITFCHSIISTLT
–	–	–	–	–	–	–	0.5	0.6	0.9	1.3	1.9	3.3	5.2	TEH (ligand) cytokine: APTSSSTKKTQLQLEHLTLDLEMILNGINNYKNPKLTRMLTFKFYMPKKATELKHLQCLEEELKPLEEVLNLAQSKNFHLRPRDLISNINVIVLELKGSETTFMCEYADETATIVEFLNRWITFCHSIISTLT
–	–	–	–	–	–	–	0.8	1.1	1.5	2.5	3.3	4.9	6.7	RLH (ligand) cytokine: APTSSSTKKTQLQLEHLRLDLLMILNGINNYKNPKLTRMLTFKFYMPKKATELKHLQCLEEELKPLEEVLNLAQSKNFHLRPRDLISNINVIVLELKGSETTFMCEYADETATIVEFLNRWITFCHSIISTLT
–	–	–	–	–	–	–	0.6	0.8	1.1	2.1	3.4	5.5	6.9	RGH (ligand) cytokine: APTSSSTKKTQLQLEHLRLDLGMILNGINNYKNPKLTRMLTFKFYMPKKATELKHLQCLEEELKPLEEVLNLAQSKNFHLRPRDLISNINVIVLELKGSETTFMCEYADETATIVEFLNRWITFCHSIISTLT

More lines, now with the values behind:

Binder	pSTAT5 ratio YT CD25/YT, dilution factor 2, upper table	pSTAT5 ratio YT CD25/YT, dilution factor 4, upper table	pSTAT5 ratio YT CD25/YT, dilution factor 8, upper table	pSTAT5 ratio YT CD25/YT, dilution factor 16, upper table	pSTAT5 ratio YT CD25/YT, dilution factor 32, upper table	pSTAT5 ratio YT CD25/YT, dilution factor 64, upper table	pSTAT5 ratio YT CD25/YT, dilution factor 128, upper table	pSTAT5 ratio YT CD25/YT, dilution factor 2, lower table	pSTAT5 ratio YT CD25/YT, dilution factor 4, lower table	pSTAT5 ratio YT CD25/YT, dilution factor 8, lower table	pSTAT5 ratio YT CD25/YT, dilution factor 16, lower table	pSTAT5 ratio YT CD25/YT, dilution factor 32, lower table	pSTAT5 ratio YT CD25/YT, dilution factor 64, lower table	pSTAT5 ratio YT CD25/YT, dilution factor 128, lower table
RAH (ligand) cytokine: APTSSSTKKTQLQLEHLRLDLAMILNGINNYKNPKLTRMLTFKFYMPKKATELKHLQCLEEELKPLEEVLNLAQSKNFHLRPRDLISNINVIVLELKGSETTFMCEYADETATIVEFLNRWITFCHSIISTLT	–	–	–	–	–	–	–	0.6	0.7	0.8	1.2	1.4	2.3	3.7
NEH (ligand) cytokine: APTSSSTKKTQLQLEHLNLDLEMILNGINNYKNPKLTRMLTFKFYMPKKATELKHLQCLEEELKPLEEVLNLAQSKNFHLRPRDLISNINVIVLELKGSETTFMCEYADETATIVEFLNRWITFCHSIISTLT	–	–	–	–	–	–	–	0.9	1.1	1.8	2.6	5.1	7.9	11.9
DEH (ligand) cytokine: APTSSSTKKTQLQLEHLDLDLEMILNGINNYKNPKLTRMLTFKFYMPKKATELKHLQCLEEELKPLEEVLNLAQSKNFHLRPRDLISNINVIVLELKGSETTFMCEYADETATIVEFLNRWITFCHSIISTLT	–	–	–	–	–	–	–	0.9	2	4.2	7.5	8.2	10.6	9.9
HEH (ligand) cytokine: APTSSSTKKTQLQLEHLHLDLEMILNGINNYKNPKLTRMLTFKFYMPKKATELKHLQCLEEELKPLEEVLNLAQSKNFHLRPRDLISNINVIVLELKGSETTFMCEYADETATIVEFLNRWITFCHSIISTLT	–	–	–	–	–	–	–	1	1.2	1.8	3.1	5.6	8.3	11.8
IEH (ligand) cytokine: APTSSSTKKTQLQLEHLILDLEMILNGINNYKNPKLTRMLTFKFYMPKKATELKHLQCLEEELKPLEEVLNLAQSKNFHLRPRDLISNINVIVLELKGSETTFMCEYADETATIVEFLNRWITFCHSIISTLT	1.2	1.4	1.6	2.6	4.6	7.2	10.9	–	–	–	–	–	–	–
